Experimental data as given in doi:10.1101/2023.02.11.528153.

Target: MERS-CoV spike RBD fragment (human betacoronavirus 2c EMC/2012 …, UniProt K0BRG7 367-606)
Test: MST

ACATAGGCGTT (ssDNA) [Labeled complementary strand]
binding result: no binding
